Settings in all cases: both partners purified
Experiment [1] has as its target T1, non-glycosylated rat HEV pORF2 P domain (Rat hepatitis E virus, R68/DEU/2009 in …, strain).
T1 construct: also called rat HEV P domain; source: Drosophila S2 cells, purified from cell lysates (Strep-Tactin XT, SEC); not shown: double strep tag, N-terminal, kept
Briefly: SPR. (In SPR one partner is held on a chip, and binding of the other changes the refractive index at the surface.)

Experiment [2] has as its target T2, non-glycosylated HEV GT 1 pORF2 P domain (Hepatitis E virus genotype 1, isolate …, UniProt P33426, strain).
T2 construct: also called HEV GT 1 P domain; source: Drosophila S2 cells, purified from cell lysates (Strep-Tactin XT, SEC); not shown: double strep tag, N-terminal, kept
Briefly: SPR.

Experiment [3] deals with T3, non-glycosylated HEV GT 2 pORF2 P domain (Hepatitis E virus genotype 2, isolate …, UniProt Q03500, strain).
T3 construct: also called HEV GT 2 P domain; source: Drosophila S2 cells, purified from cell lysates (Strep-Tactin XT, SEC); not shown: double strep tag, N-terminal, kept
Briefly: SPR.

The target of experiment [4] is T4, non-glycosylated HEV GT 4 pORF2 P domain (Hepatitis E virus genotype 4, isolate …, UniProt Q9IVZ8, strain).
T4 construct: also called HEV GT 4 P domain; source: Drosophila S2 cells, purified from cell lysates (Strep-Tactin XT, SEC); not shown: double strep tag, N-terminal, kept
As to the kind of experiment: SPR.

The target in experiment [5] is T5, non-glycosylated rat HEV pORF2 P domain (Rat hepatitis E virus, R68/DEU/2009 in …).
T5 construct: not shown: double strep tag, N-terminal, kept
As to the kind of experiment: SPR.

The target in experiment [6] is T6, non-glycosylated HEV GT 3 pORF2 P domain (Hepatitis E virus genotype 3, …).
T6 construct: also called non-glycosylated GT 3 P domain; HEV GT3 P domain; not shown: double strep tag, N-terminal, kept
Briefly: SPR.

The target in experiment [7] is T7, non-glycosylated HEV GT 3 pORF2 P domain dimer (amino acids 456-660), expressed in the cytosol (Hepatitis E virus genotype 3, isolate …, strain).
T7 construct: not shown: double strep tag, N-terminal, kept
Briefly: SPR.

The target in experiment [8] is T8, glycosylated HEV GT 3 pORF2 P domain dimer (amino acids 456-660), secreted, carrying a glycan at N562 (Hepatitis E virus genotype 3, isolate …, strain).
T8 construct: not shown: double strep tag, N-terminal, kept
Briefly: SPR.

Experiment [9] concerns the target T7, non-glycosylated HEV GT 3 pORF2 P …. As to the kind of experiment: ELISA; plates coated with 100 ng P domain per well in PBS overnight at 4 °C; antibody (IgG) at 2 μg/ml, 1 h at room temperature; HRP-conjugated goat anti-human antibody. On the technique in general: In an ELISA, binding on a coated surface is turned into a signal by an enzyme label.
In experiment [10] the target is T8, glycosylated HEV GT 3 pORF2 P domain …. Described as above.
For experiment [11], the target named is T5, non-glycosylated rat HEV pORF2 P domain. The experiment is described as above.
Experiment [12] addresses T9, non-glycosylated HEV GT 2 pORF2 P domain (Hepatitis E virus genotype 2, isolate …, UniProt Q03500, strain).
T9 construct: also called GT 2 P domain; not shown: double strep tag, N-terminal, kept
The description is as above.

In experiment [13] the target is T10, non-glycosylated HEV GT 4 pORF2 P domain (Hepatitis E virus genotype 4, isolate …, UniProt Q9IVZ8, strain).
T10 construct: also called GT 4 P domain; not shown: double strep tag, N-terminal, kept
Described as above.

B1: scFv p60.1 (scFv, V domains shown)
VH: EVQLQQSGPGLVKPSQTLSLICAISGDSVSTINAAWNWIRQSPSRGLEWLGRTYYRSKWYHEYATSVQGRIIITPDTSKNQFSLQLNSVTPEDSAVYFCARDRGPTPFDFWGQGTLVTVSS
VL: DIQMTQSPSSLSASVGDSVTITCRANQSISRSLNWYQQQPGKAPNLLIYAASHLHSGVSSRFSGSGSGADFALTISSLQPEDFATYHCQQSFVTPFTFGPGTKVDLK
notes: also called bnAb p60.1; nAb p60.1
B1: the Kd turned out to be 4930 nM in [1], 0.0238 nM in [2], 0.128 nM in [3] and 0.0382 nM in experiment [4]. Also, the koff in experiment [1] was 0.456 s⁻¹; in experiment [2], 2.56e-05 s⁻¹; in experiment [3], 8.16e-05 s⁻¹; in experiment [4], 5.14e-05 s⁻¹.

B2: p60.1 scFv (SPR analyte) (scFv, V domains shown)
VH: B1 VH
VL: B1 VL
notes: also called scFv-p60.1
On to B2, for which the “fold lower affinity than to the other four P domains” value in [5] is roughly 1000 fold.

B3: scFv p61.15 (scFv, V domains shown)
VH: QVQLVQSGAEVKKPGASVKVSCKASGYTFTNYFMHWVRQAPGQGLEWMGVFNPRGGSTTYAQKFQGRITMTSDPSTSTVYMELTSLTSEDTAMYYCARMGSVTGPVGHRWLDPWGQGTLVTVSS
VL: EIVLTQSPATLSLSPGERAALSCRASQSVDTYLAWYQQKPGQAPRLLIYDASTRAPGIPARFSGSGSGTDFTLTISSLEPEDFAVYYCQQRYNWPPITFGQGTRLEIK
notes: also called bnAb p61.15; nAb p61.15
As for B3, the Kd stood at 0.0816 nM in [6], 1.51 nM in [2], 0.896 nM in experiment [3] and 0.154 nM in experiment [4]. For the same molecule, the koff is 2.56e-05 s⁻¹ in experiment [6], 0.000604 s⁻¹ in experiment [2], 0.000585 s⁻¹ in experiment [3] and 0.000142 s⁻¹ in experiment [4].

B4: p61.15 scFv (SPR analyte) (scFv, V domains shown)
VH: B3 VH
VL: B3 VL
notes: also called scFv-p61.15
For B4, the binding result in [7] and in [8] was “binds” in each case.

B5: p61.15 IgG1 (antibody, V domains shown)
VH: B3 VH
VL: B3 VL
notes: also called nAb p61.15; bnAb p61.15
For B5, the binding result in [9] was “binds”; in [10] it was “binds”; in experiment [11], “no binding (tested: 2 μg/ml)”.

B6: scFv p60.15 (scFv, V domains shown)
VH: EVQLVQSGAELKKPGESLRISCKGSGYDFANYWIGWVRQMPGKGLEWMGIIYPRDSDIRYSPSFQGQVTISADKSISTAYLQLSSLKASDTAMYYCARHLRGLRLGELFPFDYWGQGTLVTVSS
VL: AIQLTQSPSSLSASVGDSVTITCRASQDIFSYLAWYQQKPGKAPKLLIYAASTLQSGVPSRFSGSGSGTDFTLTISSLQPEDFATYYCQQLNRYPFAFGPGTKVDIK
notes: also called bnAb p60.15; nAb p60.15
In [6], B6 came in with a Kd of 0.166 nM and an off-rate constant (koff) of 5.18e-05 s⁻¹.

B7: p60.15 IgG1 (antibody, V domains shown)
VH: B6 VH
VL: B6 VL
notes: also called nAb p60.15; bnAb p60.15
On to B7, for which, in experiment [11], the binding result is recorded as “no binding (tested: 2 μg/ml)”.

B8: scFv p60.12 (scFv, V domains shown)
VH: QVQLVQSGAEVKKPGSSVKVSCKASGDTFSSYVISWVRQAPGQGLEWMGGIIPIIGTANYAPKFQDTVTITADKSTNTVYMEMRSLRSEDTAVYYCASNVQLQRRGNWFDPWGQGTLVTVSS
VL: QSALTQPASVSGSPGQSITISCTGTSSDIGDYNFVSWYQQHPGKAPKLMIFDVTNRPSGVSNRFSGSKSGNTASLTISGLQVEDEADYYCSSYTSTNTPVVFGGGTKLTVL
notes: also called bnAb p60.12; nAb p60.12
Turning to B8, the Kd came out at 5590 nM in experiment [1], 3.29 nM in [2], 0.509 nM in experiment [3] and 8.75 nM in [4]. The koff in [1] is 0.246 s⁻¹; in experiment [2], 0.000325 s⁻¹; in experiment [3], 2.96e-05 s⁻¹; in [4], 0.000609 s⁻¹.

B9: p60.12 scFv (SPR analyte) (scFv, V domains shown)
VH: B8 VH
VL: B8 VL
Regarding B9, in [5], the “fold lower affinity than to the other four P domains” value is roughly 1000 fold.

B10: murine bnAb 8G12 (antibody, V domains shown)
VH: QLQQSGPELVKPGASVKISCKASGYTFTDFNMHWVKQSHGKSLEWIGYIYPYNGITGQNQKFKSKATLTVDNSSSSAYMELRSLTSEDSAVYYCARERFGVGNNYAWFTYWGQGTLVTVSS
VL: DIQMTQSPASLSVSVGETVTITCRASENIYSNLVWYQQKQGKSPQVLVYAATNLPDGVPSRFSGSGSGTQYSLKINSLQSEDSGSYYCQHFWETPFTFGSGTKLEIK
notes: also called control bnAb 8G12
For the molecule B10, the binding result in experiment [9] is listed as “binds”; in experiment [12] it was “binds”; in experiment [13], “binds”; in experiment [11] it was “no binding”.

For orientation: Kd means a measure of binding affinity in units of concentration. By koff is commonly meant the first-order rate constant of dissociation. A low value points to slow dissociation.

These data come from publication PMC11865592 (Nature Communications, 2025).
